Data on 5 molecules can be found in article PMC6203815 (Nature Communications, 2018).

Where a chain is given by its changes, count along the chain named.

To fix the notation:
B1: HC2-LC2 (antibody, V domains shown)
VH: EVQLVESGGGLVQPGGSLRLSCAASGFTFNNYWMSWVRQAPGKGLEWVASISNIGGTIYYPDSVKGRFTISRDSAKNSLYLQMNSLRAEDTAVYYCTRDLRMSDYFDYWGQGTLVTVSS
VL: QFVLTQPHSVSESPGKTVTISCKRSTGNIGSNYVSWYQQRPGSSPTTVIYRDDQRPSGVPDRFSGSIDRSSNSASLTISGLKTEDEADYYCHSYSTGMYIFGGGTKLTVL
B2: HC1-LC2 (antibody, V domains shown)
VH: B1 VH with S74N
VL: B1 VL
B3: HC2-LC3 (antibody, V domains shown)
VH: B1 VH
VL: B1 VL with V3M, K23T, S44A, G80R
B4: HC1-LC3 (antibody, V domains shown)
VH: B1 VH with S74N
VL: B1 VL with V3M, K23T, S44A, G80R
B5: HC1-LC1 (antibody, V domains shown)
VH: B1 VH with S74N
VL: B1 VL with Q1N, V3M, K23T

In this assay the target is Pfs48/45 6C domain (NF54) (Plasmodium falciparum NF54, UniProt V5NSK3).
Consider B1, for which the binding result is listed as “binds”. Regarding B2, the binding result was “binds”. B3: the binding result is reported as “binds”.

Turning to B4, the binding result was “binds”.

For the molecule B5, the binding result was “binds”.
